According to article PMC3215702, “The Nuclear Pore Complex Mediates Binding of the Mig1 Repressor to Target Promoters” (PLoS ONE, 2011):
Each block holds one molecule with its values, some of them ahead of it.

Key:
[1] = biological target: nuclear pore complex of nup133Δ cells (S. cerevisiae (endogenous)) (UniProt P52891); assay: co-fractionation with isolated NPCs (QFPD, quantitative fluorescent protein detection); glucose-grown (repressing) cells; nuclei isolated on sucrose/PVP-40 gradients, lysed with DNase I, NPC fraction floated on sucrose/Nycodenz gradient; GFP fluorescence of the fractions read on a Typhoon imager; values relative to wild type; also done in gcr1Δ and gcr1Δ nup84Δ strains
[2] = biological target: nuclear pore complex of nup120Δ cells (S. cerevisiae (endogenous)) (UniProt P52891); assay: as above
[3] = biological target: nuclear pore complex of nup84Δ cells (S. cerevisiae (endogenous)) (UniProt P35729); assay: as above
Mig1-GFP fusion protein = biological target: T1, Mig1-GFP fusion protein (S. cerevisiae, UniProt P27705 1-504); assay: co-IP; anti-GFP antibody added to crude lysate of glucose-grown cells, protein A sepharose; eluate blotted and probed with anti-lexA antibody (anti-GFP as control); conditions: partners not purified
T1 construct: Mig1, glucose-regulated repressor of S. cerevisiae; GFP tag integrated at the MIG1 locus; Called a fully functional fusion; also called GFP-tagged Mig1; source: S. cerevisiae, Mig1-GFP strain from the Yeast GFP Clone collection (Invitrogen), integrated GFP tag; in crude lysate or cell fractions
T1 sequence (P27705 whole entry, the tested form may be a part): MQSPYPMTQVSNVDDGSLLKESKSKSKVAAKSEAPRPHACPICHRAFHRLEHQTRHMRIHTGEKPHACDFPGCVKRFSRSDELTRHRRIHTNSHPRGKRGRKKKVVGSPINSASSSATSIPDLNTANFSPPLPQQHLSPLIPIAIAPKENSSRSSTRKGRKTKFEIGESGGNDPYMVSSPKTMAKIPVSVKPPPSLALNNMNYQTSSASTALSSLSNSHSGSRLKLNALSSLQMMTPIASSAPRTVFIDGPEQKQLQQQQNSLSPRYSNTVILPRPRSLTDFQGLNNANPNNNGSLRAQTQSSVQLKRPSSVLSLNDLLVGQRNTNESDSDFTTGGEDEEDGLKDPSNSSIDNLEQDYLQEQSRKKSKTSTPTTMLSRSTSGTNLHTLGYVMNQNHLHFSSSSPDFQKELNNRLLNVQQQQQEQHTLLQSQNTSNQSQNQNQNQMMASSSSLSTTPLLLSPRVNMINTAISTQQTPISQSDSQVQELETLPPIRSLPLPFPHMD

Sequence of nuclear pore complex of nup84Δ cells (S. cerevisiae (endogenous)) (P35729 whole entry, looked up, stated change not applied, the tested form may be a part, one chain of several): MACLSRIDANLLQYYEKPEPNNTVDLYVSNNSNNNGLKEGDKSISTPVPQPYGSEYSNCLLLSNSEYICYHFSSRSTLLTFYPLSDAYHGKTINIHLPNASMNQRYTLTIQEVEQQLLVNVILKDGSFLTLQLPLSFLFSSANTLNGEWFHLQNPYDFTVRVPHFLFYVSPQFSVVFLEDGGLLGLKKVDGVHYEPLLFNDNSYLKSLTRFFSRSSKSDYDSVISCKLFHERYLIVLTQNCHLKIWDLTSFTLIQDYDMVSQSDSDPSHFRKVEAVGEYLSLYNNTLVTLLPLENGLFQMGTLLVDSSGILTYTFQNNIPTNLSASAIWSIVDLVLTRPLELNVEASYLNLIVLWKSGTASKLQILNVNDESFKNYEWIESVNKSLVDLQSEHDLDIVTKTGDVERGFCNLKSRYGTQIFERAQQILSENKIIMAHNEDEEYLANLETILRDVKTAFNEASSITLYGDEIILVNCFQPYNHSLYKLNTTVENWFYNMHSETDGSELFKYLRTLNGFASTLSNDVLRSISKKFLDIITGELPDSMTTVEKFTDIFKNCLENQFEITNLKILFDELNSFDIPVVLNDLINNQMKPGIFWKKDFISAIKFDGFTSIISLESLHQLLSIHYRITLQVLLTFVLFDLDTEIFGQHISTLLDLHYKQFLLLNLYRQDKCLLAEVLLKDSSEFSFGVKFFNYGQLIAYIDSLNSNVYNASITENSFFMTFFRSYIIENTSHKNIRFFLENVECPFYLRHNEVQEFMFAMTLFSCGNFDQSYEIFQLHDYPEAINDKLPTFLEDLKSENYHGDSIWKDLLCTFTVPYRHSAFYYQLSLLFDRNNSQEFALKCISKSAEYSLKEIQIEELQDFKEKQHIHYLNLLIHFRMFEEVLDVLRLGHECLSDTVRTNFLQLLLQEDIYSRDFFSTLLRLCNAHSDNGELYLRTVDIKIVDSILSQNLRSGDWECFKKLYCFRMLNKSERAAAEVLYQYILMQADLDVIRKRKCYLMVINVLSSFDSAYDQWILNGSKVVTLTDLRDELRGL
Sequence of nuclear pore complex of nup120Δ cells (S. cerevisiae (endogenous)) (P52891 whole entry, looked up, stated change not applied, one chain of several): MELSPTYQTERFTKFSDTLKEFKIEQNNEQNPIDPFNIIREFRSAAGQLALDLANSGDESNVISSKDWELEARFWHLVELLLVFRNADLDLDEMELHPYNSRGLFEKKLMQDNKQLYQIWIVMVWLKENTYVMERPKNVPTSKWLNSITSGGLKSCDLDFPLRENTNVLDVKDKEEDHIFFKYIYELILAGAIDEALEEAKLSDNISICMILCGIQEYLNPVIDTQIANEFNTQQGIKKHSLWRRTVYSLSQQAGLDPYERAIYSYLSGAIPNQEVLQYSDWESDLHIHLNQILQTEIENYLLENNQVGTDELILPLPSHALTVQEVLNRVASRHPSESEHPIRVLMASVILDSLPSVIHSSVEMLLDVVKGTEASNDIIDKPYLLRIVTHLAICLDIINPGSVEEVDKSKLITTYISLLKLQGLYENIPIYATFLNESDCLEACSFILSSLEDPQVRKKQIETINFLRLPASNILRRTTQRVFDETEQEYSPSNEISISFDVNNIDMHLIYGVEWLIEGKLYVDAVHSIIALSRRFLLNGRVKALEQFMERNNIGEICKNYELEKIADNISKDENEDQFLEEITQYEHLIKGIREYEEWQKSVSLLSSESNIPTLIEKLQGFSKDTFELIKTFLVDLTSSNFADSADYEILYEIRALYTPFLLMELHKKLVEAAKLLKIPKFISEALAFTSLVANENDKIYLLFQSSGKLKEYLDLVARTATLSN
Sequence of nuclear pore complex of nup133Δ cells (S. cerevisiae (endogenous)) (P52891 whole entry, looked up, stated change not applied, one chain of several): as above

- perinuclear Mig1 relative to wild type (relative to wild type (1.00)) [1]: 0.03
- perinuclear Mig1 relative to wild type (relative to wild type (1.00)) [2]: 0.43
- perinuclear Mig1 relative to wild type (relative to wild type (1.00)) [3]: 1.3
Molecule: Mig1-GFP fusion protein (from UniProt P27705 1-504) (natural protein)

- fold reduction in co-immunoprecipitation relative to Nup84-lexA (Mig1-GFP fusion protein): > 2 fold
B1: Nup53-lexA (natural protein, S. cerevisiae, UniProt Q03790 1-475, looked up)
chain: MADLQKQENSSRFTNVSVIAPESQGQHEQQKQQEQLEQQKQPTGLLKGLNGFPSAPQPLFMEDPPSTVSGELNDNPAWFNNPRKRAIPNSIIKRSNGQSLSPVRSDSADVPAFSNSNGFNNVTFGSKKDPRILKNVSPNDNNSANNNAHSSDLGTVVFDSNEAPPKTSLADWQKEDGIFSSKTDNIEDPNLSSNITFDGKPTATPSPFRPLEKTSRILNFFDKNTKTTPNTASSEASAGSKEGASTNWDDHAIIIFGYPETIANSIILHFANFGEILEDFRVIKDFKKLNSKNMSKSPSLTAQKYPIYTGDGWVKLTYKSELSKSRALQENGIIMNGTLIGCVSYSPAALKQLASLKKSEEIINNKTSSQTSLSSKDLSNYRKTEGIFEKAKAKAVTSKVRNAEFKVSKNSTSFKNPRRLEIKDGRSLFLRNRGKIHSGVLSSIESDLKKREQASKSKKSWLNRLNNWLFGWNDL
notes: Nup53, nucleoporin, S. cerevisiae; source: S. cerevisiae Mig1-GFP strain, in crude lysate
